Data reported in US20100325744A1.

What was measured:
2F8-HG (human) [1] = test: self-association of HG half-molecules; non-covalent nano-electrospray mass spectrometry
2F8-HG (human) [2] = test: self-association; non-covalent nano-electrospray mass spectrometry at 0.01-10 µM

percentage molecules present as monomers (2F8-HG (human) [1]): 15%
percentage monomeric at low concentrations (2F8-HG (human) [2]): 100%
Substance: 2F8-HG (antibody)
